{"source": "patent US20200199241A1", "about": "(Chugai, published 2020)", "key": {"[1]": {"molecular_target": "T1, mouse FcγRIIb (mouse, UniProt P08101 30-207, limits assumed)", "T1 construct": "bought; also called mFcgRIIb; mFcgR IIb", "T1 sequence (looked up)": "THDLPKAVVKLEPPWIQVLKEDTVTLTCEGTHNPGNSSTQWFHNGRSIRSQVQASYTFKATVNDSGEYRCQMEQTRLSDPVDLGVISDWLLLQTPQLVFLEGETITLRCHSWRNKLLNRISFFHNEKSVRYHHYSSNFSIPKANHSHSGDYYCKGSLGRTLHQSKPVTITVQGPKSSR", "assay": "SPR (Biacore T100/T200): FcγR injected over the antibody held by human FcRn immobilised on a CM4 chip (simultaneous binding), pH 7.4, 25 C"}, "[2]": {"molecular_target": "T2, mouse FcγRI (mouse, UniProt P26151 25-297)", "T2 construct": "bought; also called mFcgRI; mFcgR 1", "T2 sequence (looked up)": "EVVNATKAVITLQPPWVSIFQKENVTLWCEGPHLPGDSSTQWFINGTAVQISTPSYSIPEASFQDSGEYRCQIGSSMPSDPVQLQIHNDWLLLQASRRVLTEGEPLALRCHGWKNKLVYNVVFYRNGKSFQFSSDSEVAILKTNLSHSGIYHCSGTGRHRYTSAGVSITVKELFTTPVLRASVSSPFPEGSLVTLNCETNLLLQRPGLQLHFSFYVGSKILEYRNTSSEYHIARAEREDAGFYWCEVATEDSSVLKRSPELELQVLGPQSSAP", "assay": "SPR (Biacore T100/T200): FcγR injected over the antibody held by human FcRn immobilised on a CM4 chip (simultaneous binding), pH 7.4, 25 C"}, "[3]": {"molecular_target": "T3, mouse FcγRIV (mouse, UniProt A0A0B4J1G0 21-203)", "T3 construct": "bought; also called mFcgRIV; mFcgR IV; the vendor's purification tag not given", "T3 sequence": "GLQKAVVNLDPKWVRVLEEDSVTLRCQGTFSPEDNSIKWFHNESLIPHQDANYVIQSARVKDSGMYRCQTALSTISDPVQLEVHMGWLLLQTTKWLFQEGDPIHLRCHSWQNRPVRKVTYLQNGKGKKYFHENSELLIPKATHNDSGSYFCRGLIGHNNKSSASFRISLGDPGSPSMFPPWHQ", "assay": "SPR (Biacore T100/T200): FcγR injected over the antibody held by human FcRn immobilised on a CM4 chip (simultaneous binding), pH 7.4, 25 C"}, "[4]": {"molecular_target": "T4, mouse FcγRIII (mouse, UniProt P08508 31-215)", "T4 construct": "bought; also called mFcgRIII; mFcgR III", "T4 sequence (looked up)": "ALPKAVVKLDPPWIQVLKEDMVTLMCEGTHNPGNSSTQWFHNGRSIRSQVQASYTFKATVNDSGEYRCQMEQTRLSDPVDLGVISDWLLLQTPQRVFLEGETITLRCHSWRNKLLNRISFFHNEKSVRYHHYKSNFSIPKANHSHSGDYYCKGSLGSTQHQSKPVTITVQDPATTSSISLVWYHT", "assay": "SPR (Biacore T100/T200): FcγR injected over the antibody held by human FcRn immobilised on a CM4 chip (simultaneous binding), pH 7.4, 25 C"}, "[5]": {"molecular_target": "T5, human FcγRIIb (human, UniProt P31994 43-217, limits assumed)", "T5 construct": "also called hFcgRIIb; FcγIIB", "T5 sequence": "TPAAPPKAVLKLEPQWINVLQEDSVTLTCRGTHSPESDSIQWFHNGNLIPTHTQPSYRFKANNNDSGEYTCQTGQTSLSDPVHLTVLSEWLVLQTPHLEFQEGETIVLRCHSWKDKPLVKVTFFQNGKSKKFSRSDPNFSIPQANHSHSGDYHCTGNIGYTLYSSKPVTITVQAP", "assay": "SPR (Biacore T100/T200): FcγR injected over the antibody held by human FcRn immobilised on a CM4 chip (simultaneous binding), pH 7.4, 25 C"}, "[6]": {"molecular_target": "T6, human FcγRIa (human, UniProt P12314 16-292, limits assumed)", "T6 construct": "also called hFcgRIa; hFcgRI", "T6 sequence (P12314 16-292 limits assumed)": "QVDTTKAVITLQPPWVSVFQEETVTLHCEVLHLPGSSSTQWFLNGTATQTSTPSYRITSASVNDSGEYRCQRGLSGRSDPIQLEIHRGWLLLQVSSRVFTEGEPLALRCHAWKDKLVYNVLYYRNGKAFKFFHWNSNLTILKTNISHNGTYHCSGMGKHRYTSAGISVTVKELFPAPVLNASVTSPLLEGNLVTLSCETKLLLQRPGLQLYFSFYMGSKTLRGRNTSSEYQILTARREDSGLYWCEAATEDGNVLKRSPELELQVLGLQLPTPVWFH", "assay": "SPR (Biacore T100/T200): FcγR injected over the antibody held by human FcRn immobilised on a CM4 chip (simultaneous binding), pH 7.4, 25 C"}, "[7]": {"molecular_target": "T7, human FcRn (soluble human FcRn complexed with β2-microglobulin) (human, UniProt P61769 21-119, limits assumed)", "T7 construct": "also called hFcRn", "T7 sequence (chain, as listed by the source limits assumed, chain 1 of 2)": "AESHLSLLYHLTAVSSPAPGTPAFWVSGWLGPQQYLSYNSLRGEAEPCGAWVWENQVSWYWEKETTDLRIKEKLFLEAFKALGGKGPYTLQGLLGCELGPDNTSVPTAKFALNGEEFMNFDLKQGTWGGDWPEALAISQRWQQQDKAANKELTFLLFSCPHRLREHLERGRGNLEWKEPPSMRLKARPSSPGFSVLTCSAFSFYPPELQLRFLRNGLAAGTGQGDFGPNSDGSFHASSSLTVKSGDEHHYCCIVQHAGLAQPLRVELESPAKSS", "T7 sequence (P61769 21-119 limits assumed, chain 2 of 2)": "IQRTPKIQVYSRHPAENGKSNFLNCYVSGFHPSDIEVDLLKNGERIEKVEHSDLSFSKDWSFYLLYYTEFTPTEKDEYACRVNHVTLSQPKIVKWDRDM", "assay": "SPR, antibody captured by Protein L, human FcRn as analyte, pH 7.0, 25 C"}, "[8]": {"molecular_target": "T8, human FcγRIIIa(V) (human, UniProt P08637 17-208, limits assumed)", "T8 construct": "also called hFcgRIIIa(V); allotype V158", "T8 sequence (P08637 other isoform, or with tags, fused parts or gaps limits assumed)": "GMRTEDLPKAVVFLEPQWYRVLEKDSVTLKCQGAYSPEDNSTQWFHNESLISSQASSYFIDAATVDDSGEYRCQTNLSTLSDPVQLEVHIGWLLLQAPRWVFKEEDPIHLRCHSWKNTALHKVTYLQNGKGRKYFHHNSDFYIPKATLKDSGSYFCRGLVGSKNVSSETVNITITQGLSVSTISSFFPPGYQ", "assay": "SPR, antibody captured by Protein L, human FcγR as analyte, pH 7.4, 25 C;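 further: biacore T100 or T200 with Protein L amine-coupled on a CM4 chip, FcγRs diluted in ACES saline with polysorbate 20, buffer-only injection as blank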"}, "[9]": {"molecular_target": "T9, human FcγRIIa(R) (human, UniProt P12318 36-217)", "T9 construct": "also called hFcgRIIa(R); FcγRIIa type R", "T9 chain": "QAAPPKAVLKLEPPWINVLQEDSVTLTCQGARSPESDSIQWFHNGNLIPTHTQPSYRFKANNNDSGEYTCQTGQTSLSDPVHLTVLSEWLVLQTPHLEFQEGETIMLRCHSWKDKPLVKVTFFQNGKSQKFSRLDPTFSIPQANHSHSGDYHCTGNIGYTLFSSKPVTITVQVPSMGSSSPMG", "assay": "SPR, antibody captured by Protein L, human FcγR as analyte, pH 7.4, 25 C"}, "[10]": {"molecular_target": "T10, human FcγRIIa(H) (human, UniProt P12318 36-217)", "T10 construct": "also called hFcgRIIa(H); FcγRIIa type H", "T10 sequence": "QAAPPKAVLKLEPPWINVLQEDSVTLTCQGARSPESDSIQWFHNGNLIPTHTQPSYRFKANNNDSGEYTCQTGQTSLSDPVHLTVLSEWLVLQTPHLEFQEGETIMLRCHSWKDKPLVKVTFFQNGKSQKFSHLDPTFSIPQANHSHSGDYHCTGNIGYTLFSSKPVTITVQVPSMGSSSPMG", "assay": "SPR, antibody captured by Protein L, human FcγR as analyte, pH 7.4, 25 C"}, "[11]": {"molecular_target": "T6, human FcγRIa", "assay": "SPR, antibody captured by Protein L, human FcγR as analyte, pH 7.4, 25 C"}, "[12]": {"molecular_target": "T7, human FcRn (soluble human FcRn …)", "assay": "SPR, antibody captured by Protein L, human FcRn as analyte, pH 7.0, 25 C", "remark": "listed apart in the source"}, "[13]": {"molecular_target": "T1, mouse FcγRIIb", "assay": "SPR, antibody captured by Protein L, mouse FcγR as analyte, pH 7.4, 25 C", "design": "unit not given here"}, "[14]": {"molecular_target": "T3, mouse FcγRIV", "assay": "SPR, antibody captured by Protein L, mouse FcγR as analyte, pH 7.4, 25 C", "design": "unit not given here"}, "[15]": {"molecular_target": "T4, mouse FcγRIII", "assay": "SPR, antibody captured by Protein L, mouse FcγR as analyte, pH 7.4, 25 C", "design": "unit not given here"}, "[16]": {"molecular_target": "T1, mouse FcγRIIb", "assay": "SPR (Biacore T100/T200): FcγR injected over the antibody held by mouse FcRn immobilised on a CM4 chip (simultaneous binding), pH 7.4, 25 C"}, "[17]": {"molecular_target": "T3, mouse FcγRIV", "assay": "SPR (Biacore T100/T200): FcγR injected over the antibody held by mouse FcRn immobilised on a CM4 chip (simultaneous binding), pH 7.4, 25 C"}, "[18]": {"molecular_target": "T4, mouse FcγRIII", "assay": "SPR (Biacore T100/T200): FcγR injected over the antibody held by mouse FcRn immobilised on a CM4 chip (simultaneous binding), pH 7.4, 25 C"}, "[19]": {"molecular_target": "T2, mouse FcγRI", "assay": "SPR (Biacore T100/T200): FcγR injected over the antibody held by mouse FcRn immobilised on a CM4 chip (simultaneous binding), pH 7.4, 25 C"}}, "note": "Where two headings read alike, the source gives them in different places.", "data": [{"binder": "Fv4-IgG1-F157 (VH3-IgG1-F157 and VL3-CK) (antibody, copies: 2 + 2) heavy: QVQLQESGPGLVKPSETLSLTCAVSGHSISHDHAWSWVRQPPGEGLEWIGFISYSGITNYNPSLQGRVTISRDNSKNTLYLQMNSLRAEDTAVYYCARSLARTTAMDYWGEGTLVTVSSASTKGPSVFPLAPSSKSTSGGTAALGCLVKDYFPEPVTVSWNSGALTSGVHTFPAVLQSSGLYSLSSVVTVPSSSLGTQTYICNVNHKPSNTKVDKKVEPKSCDKTHTCPPCPAPELLGGPSVFLFPPKPKDTLMISRTAEVTCVVVDVSHEDPEVKFNWYVDGVEVHNAKTKPREEQYNSTYRVVSVLTPLHQDWLNGKEYKCKVSNKALPAPIEKTISKAKGQPREPQVYTLPPSRDELTKNQVSLTCLVKGFYPSDIAVEWESNGQPENNYKTTPPVLDSDGSFFLYSKLTVDKSRWQQGNVFSCSVLHEALHYHYTQKSLSLSP light: DIQMTQSPSSLSASVGDSVTITCQASTDISSHLNWYQQKPGKAPELLIYYGSHLLSGVPSRFSGSGSGTDFTFTISSLEAEDAATYYCGQGNRLPYTFGQGTKVEIERTVAAPSVFIFPPSDEQLKSGTASVVCLLNNFYPREAKVQWKVDNALQSGNSQESVTEQDSKDSTYSLSSTLTLSKADYEKHKVYACEVTHQGLSSPVTKSFNRGEC", "values": [{"measurement": "binding result", "setting": "[1]", "result": "binds"}, {"measurement": "binding result", "setting": "[2]", "result": "binds"}, {"measurement": "binding result", "setting": "[3]", "result": "binds"}, {"measurement": "binding result", "setting": "[4]", "result": "binds"}, {"measurement": "binding result", "setting": "[5]", "result": "binds"}, {"measurement": "binding result", "setting": "[6]", "result": "binds"}]}, {"binder": "antibody with VH3-IgG1-F1326 heavy chain and L(WT)-CK light chain (antibody, L234A/L235A/T250V/M252Y/T307Q/V308P/Q311A/N434Y/Y436V; copies: 2 + 2) heavy: QVQLQESGPGLVKPSETLSLTCAVSGHSISHDHAWSWVRQPPGEGLEWIGFISYSGITNYNPSLQGRVTISRDNSKNTLYLQMNSLRAEDTAVYYCARSLARTTAMDYWGEGTLVTVSSASTKGPSVFPLAPSSKSTSGGTAALGCLVKDYFPEPVTVSWNSGALTSGVHTFPAVLQSSGLYSLSSVVTVPSSSLGTQTYICNVNHKPSNTKVDKKVEPKSCDKTHTCPPCPAPEAAGGPSVFLFPPKPKDVLYISRTPEVTCVVVDVSHEDPEVKFNWYVDGVEVHNAKTKPREEQYNSTYRVVSVLQPLHADWLNGKEYKCKVSNKALPAPIEKTISKAKGQPREPQVYTLPPSRDELTKNQVSLTCLVKGFYPSDIAVEWESNGQPENNYKTTPPVLDSDGSFFLYSKLTVDKSRWQQGNVFSCSVMHEALHYHVTQKSLSLSP light: not shown", "values": [{"measurement": "Kd", "setting": "[7]", "result": 11, "unit": "nM"}, {"measurement": "BINDING AMOUNT (RU)", "setting": "[8]", "result": 61.6, "unit": "RU"}, {"measurement": "BINDING AMOUNT (RU)", "setting": "[9]", "result": 11.7, "unit": "RU"}, {"measurement": "BINDING AMOUNT (RU)", "setting": "[10]", "result": 11.4, "unit": "RU"}, {"measurement": "BINDING AMOUNT (RU)", "setting": "[11]", "result": 265, "unit": "RU"}, {"measurement": "Kd", "setting": "[12]", "result": 11, "unit": "nM"}, {"measurement": "binding amount", "setting": "[13]", "result": 19.2}, {"measurement": "binding amount", "setting": "[14]", "result": 85.6}, {"measurement": "binding amount", "setting": "[15]", "result": 532}]}, {"binder": "Fv4-IgG1-F20 (VH3-IgG1-F20 and VL3-CK) (antibody, copies: 2 + 2) heavy: not shown light: DIQMTQSPSSLSASVGDSVTITCQASTDISSHLNWYQQKPGKAPELLIYYGSHLLSGVPSRFSGSGSGTDFTFTISSLEAEDAATYYCGQGNRLPYTFGQGTKVEIERTVAAPSVFIFPPSDEQLKSGTASVVCLLNNFYPREAKVQWKVDNALQSGNSQESVTEQDSKDSTYSLSSTLTLSKADYEKHKVYACEVTHQGLSSPVTKSFNRGEC", "values": [{"measurement": "binding result", "setting": "[16]", "result": "binds"}, {"measurement": "binding result", "setting": "[17]", "result": "binds"}, {"measurement": "binding result", "setting": "[18]", "result": "binds"}, {"measurement": "binding result", "setting": "[19]", "result": "binds"}]}]}
